Measurements taken from PMC11480844 (2024).

B1: H2-Kb / Ed46 (parent complex)
chain 1: AQSVTQPDARVTVSEGASLQLRCKYSYFGTPYLFWYVQYPRQGLQLLLKYYPGDPVVQGVNGFEAEFSKSNSSFHLRKASVHWSDWAVYFCAVGRTGGYKVVFGSGTRLLVSP
chain 2: DSGVVQSPRHIIKEKGGRSVLTCIPISGHSNVVWYQQTLGKELKFLIQHYEKVERDKGFLPSRFSVQQFDDYHSEMNMSALELEDSAMYFCASSPRHSDYTFGSGTRLLVI
chain 3: not shown
chain 4: IQKTPQIQVYSRHPPENGKPNILNCYVTQFHPPHIEIQMLKNGKKIPKVEMSDMSFSKDWSFYILAHTEFTPTETDTYACRVKHDSMAEPKTVYWDRDM
chain 5: SIINFEKL
B2: H2-Kb / B15 (parent complex)
chain 1: QQQVRQSPQSLTVWEGETAILNCSYENSAFDYFPWYQQFPGEGPALLISILSVSDKKEDGRFTIFFNKREKKLSLHIADSQPGDSATYFCAASAASNNRLTLGKGTQVVVLP
chain 2: DSGVVQSPRHIIKEKGGRSVLTCIPISGHSNVVWYQQTLGKELKFLIQHYEKVERDKGFLPSRFSVQQFDDYHSEMNMSALELEDSAMYFCASSRRADAEQFFGPGTRLTVL
chain 3: not shown
chain 4: B1 chain 4
chain 5: SIINFEKL

Variants of: B1
Assay: % of reporter cells activated (NFAT-GFP), raw
Further: test concentration or dose not given here.

Variant	ratio to parent
chain 5 E6Q	0.475
chain 5 E6D	1.02
chain 5 E6S	0.249
chain 5 E6V	0.0112
chain 5 E6G	0.355
chain 5 S1I	0.0213
chain 5 S1K	0.328
chain 5 S1M	0.235
chain 5 S1F	0.018
chain 5 S1E	0.174
chain 5 I2S	1.4
chain 5 I2V	1.4
chain 5 I3N	0.34
chain 5 K7V	0.353
chain 5 K7P	0.349
chain 5 K7R	0.814
chain 5 K7G	0.341
chain 5 K7H	0.74
chain 5 L8M	1.08
chain 5 L8H	0.912
chain 5 L8T	1.01
chain 5 L8D	0.618
chain 5 L8N	0.697
chain 5 L8S	0.783
chain 5 N4S	0.00601
chain 5 N4F	0.0192
chain 5 F5H	1.23
chain 5 F5V	1.05

Variants of: B2
Assay: % of reporter cells activated (NFAT-GFP), raw

Variant	ratio to parent
chain 5 F5C	0.834
chain 5 F5N	0.673
chain 5 F5L	0.775
chain 5 F5D	0.553
chain 5 F5A	0.953
chain 5 F5I	0.818
chain 5 F5P	0.829
chain 5 F5G	0.792
chain 5 F5M	0.836
chain 5 F5Q	0.579
chain 5 F5Y	0.952
chain 5 F5W	0.981
chain 5 F5V	0.999
chain 5 F5E	0.531
chain 5 F5T	1.03
chain 5 F5S	0.969
chain 5 F5K	0.698
chain 5 S1Y	0.727
chain 5 S1P	0.545
chain 5 S1V	0.199
chain 5 S1T	0.487
chain 5 S1W	0.383
chain 5 S1Q	0.961
chain 5 S1H	0.517
chain 5 S1M	0.601

Variant	ratio to parent
chain 5 S1C	0.577
chain 5 S1L	0.456
chain 5 S1D	0.898
chain 5 S1R	1.03
chain 5 S1F	0.144
chain 5 S1N	0.416
chain 5 S1I	0.115
chain 5 S1G	0.669
chain 5 S1K	0.591
chain 5 N4Y	0.151
chain 5 N4H	0.089
chain 5 N4S	0.0135
chain 5 N4W	0.0638
chain 5 N4F	0.202
chain 5 N4A	0.0258
chain 5 N4I	0.194
chain 5 N4K	0.21
chain 5 N4T	0.01
chain 5 N4L	0.391
chain 5 N4Q	0.0132
chain 5 N4V	0.028
chain 5 N4M	0.00683
chain 5 N4E	0.26
chain 5 N4D	0.0675
chain 5 N4G	0.184

Variant	ratio to parent
chain 5 I3Y	0.0196
chain 5 I3F	0.0424
chain 5 I3C	0.607
chain 5 I3P	0.982
chain 5 I3W	0.479
chain 5 I3H	0.491
chain 5 I3M	0.891
chain 5 I3Q	0.743
chain 5 I3L	0.812
chain 5 I3N	0.0985
chain 5 I3D	0.503
chain 5 I3K	0.71
chain 5 I3A	0.5
chain 5 I3S	0.601
chain 5 I3T	0.273
chain 5 K7A	0.359
chain 5 K7V	0.454
chain 5 K7N	0.27
chain 5 K7M	0.155
chain 5 K7P	0.377
chain 5 K7E	0.0434
chain 5 K7H	0.291
chain 5 K7S	0.774
chain 5 K7R	0.928
chain 5 K7I	0.0863

Variant	ratio to parent
chain 5 K7C	0.0553
chain 5 K7T	0.124
chain 5 K7Y	0.383
chain 5 K7D	0.117
chain 5 I2T	1.02
chain 5 I2H	0.9
chain 5 I2S	0.959
chain 5 I2G	0.917
chain 5 I2Q	0.85
chain 5 I2F	0.882
chain 5 I2V	1
chain 5 I2D	0.987
chain 5 I2M	0.89
chain 5 I2R	0.972
chain 5 I2W	0.811
chain 5 I2N	0.974
chain 5 I2L	1.03
chain 5 I2E	0.915
chain 5 I2Y	0.764
chain 5 I2C	0.934
chain 5 L8E	0.741
chain 5 L8S	0.802
chain 5 L8I	0.934
chain 5 L8G	0.75
chain 5 L8M	0.955

Variant	ratio to parent
chain 5 L8C	0.767
chain 5 L8R	0.904
chain 5 L8H	0.905
chain 5 L8P	0.75
chain 5 L8F	0.907
chain 5 L8V	0.901
chain 5 L8D	0.692
chain 5 L8K	0.801
chain 5 L8A	0.833
chain 5 L8Q	0.784
chain 5 L8N	0.844
chain 5 E6G	0.491
chain 5 E6H	0.241
chain 5 E6I	0.00958
chain 5 E6S	0.221
chain 5 E6V	0.0123
chain 5 E6D	0.956
chain 5 E6L	0.0519
chain 5 E6F	0.13
chain 5 E6A	0.205
chain 5 E6N	0.195
chain 5 E6Y	0.15
